# From article PMC10126545
# Molecular target: COBRA P1 HA ectodomain, insect-cell expressed, Foldon and tags removed by thrombin
# Test: SEC; Superdex 200 16/600 in 50 mM NaCl, 10 mM Tris pH 7.5, after thrombin digestion that removed the Foldon and tags
substance,measurement,value
"COBRA P1 HA ectodomain, insect-cell expressed, Foldon and tags removed by thrombin",stoichiometry N,3
